Assay results reported in publication PMC12016517, “Transcriptional regulation of two redundant 3-bromo-4-hydroxybenzoate catabolic operons via two different regulatory modes in Pigmentiphaga kullae strain H8” (Applied and Environmental Microbiology, 2025).
“And” between values parts separate entries of the source, which are not always exact repeats. Identical values can stand only once.

Legend:
[1] = target: T1, BhbR2 (MarR-family transcription factor); test: SPR (Biacore T200, protein immobilized on CM7 chip, steady-state affinity); type: binding, Pigmentiphaga kullae
T1 construct: C-terminal His-tagged BhbR2 (179 amino acids), expressed in E. coli BL21(DE3)

[2] = target: T2, BhbR1 (LysR-type transcriptional regulator); test: as above; type: binding, Pigmentiphaga kullae
T2 construct: C-terminal His-tagged BhbR1 (302 amino acids), expressed in E. coli BL21(DE3)

[3] = tested on: T3, BhbR1 (LysR-type regulator) (Pigmentiphaga kullae H8), ORF:3710a82b; test: SPR; details: EMSA BhbR1: 100 mM Tris-HCl pH 8.0, 50 mM KCl, 5% glycerol, 1 mM DTT, BhbR2: 50 mM Tris-HCl pH 8.0, 30 mM KCl, 1 mM EDTA, 5 mM DTT, 25 C, 30 min. …
T3 sequence: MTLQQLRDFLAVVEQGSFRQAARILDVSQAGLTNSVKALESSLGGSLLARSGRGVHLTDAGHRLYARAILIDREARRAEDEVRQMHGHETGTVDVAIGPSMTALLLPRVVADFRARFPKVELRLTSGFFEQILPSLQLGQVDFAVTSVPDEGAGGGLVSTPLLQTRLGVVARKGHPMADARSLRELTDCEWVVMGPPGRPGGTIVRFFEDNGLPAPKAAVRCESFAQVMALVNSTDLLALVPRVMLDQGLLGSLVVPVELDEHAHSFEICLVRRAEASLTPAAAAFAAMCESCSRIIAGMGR

[4] = tested on: BhbR2 (MarR-family regulator) (Pigmentiphaga kullae H8); test: SPR; details: EMSA BhbR1: 100 mM Tris-HCl pH 8.0, 50 mM KCl, 5% glycerol, 1 mM DTT, BhbR2: 50 mM Tris-HCl pH 8.0, 30 mM KCl, 1 mM EDTA, 5 mM DTT, 25 C, 30 min. …
[5] = tested on: BhbR1 (LysR-type regulator) (Pigmentiphaga kullae H8); test: SPR; details: EMSA BhbR1: 100 mM Tris-HCl pH 8.0, 50 mM KCl, 5% glycerol, 1 mM DTT, BhbR2: 50 mM Tris-HCl pH 8.0, 30 mM KCl, 1 mM EDTA, 5 mM DTT, 25 C, 30 min. …
[6] = tested on: T3, BhbR1 (LysR-type regulator) (Pigmentiphaga kullae H8), ORF:3710a82b; test: EMSA; details: EMSA BhbR1: 100 mM Tris-HCl pH 8.0, 50 mM KCl, 5% glycerol, 1 mM DTT, BhbR2: 50 mM Tris-HCl pH 8.0, 30 mM KCl, 1 mM EDTA, 5 mM DTT, 25 C, 30 min. …
[7] = tested on: T4, BhbR2 (MarR-family regulator) (Pigmentiphaga kullae H8), ORF:e62c0bd9; test: EMSA; details: EMSA BhbR1: 100 mM Tris-HCl pH 8.0, 50 mM KCl, 5% glycerol, 1 mM DTT, BhbR2: 50 mM Tris-HCl pH 8.0, 30 mM KCl, 1 mM EDTA, 5 mM DTT, 25 C, 30 min. …
T4 sequence: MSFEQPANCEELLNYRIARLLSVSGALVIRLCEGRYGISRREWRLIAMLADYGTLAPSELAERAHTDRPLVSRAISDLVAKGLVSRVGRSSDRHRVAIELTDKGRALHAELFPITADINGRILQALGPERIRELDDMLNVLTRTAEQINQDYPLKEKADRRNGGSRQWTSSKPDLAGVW

[8] = tested on: T4, BhbR2 (MarR-family regulator) (Pigmentiphaga kullae H8), ORF:e62c0bd9; test: SPR; details: EMSA BhbR1: 100 mM Tris-HCl pH 8.0, 50 mM KCl, 5% glycerol, 1 mM DTT, BhbR2: 50 mM Tris-HCl pH 8.0, 30 mM KCl, 1 mM EDTA, 5 mM DTT, 25 C, 30 min. …
[9] = target: LysR-type transcriptional regulator BhbR1 (Pigmentiphaga kullae strain H8); test: SEC; gel filtration on Superose 6 10/300 GL, 25°C, PBS pH 7.8, 0.4 mL/min, calibrated with protein molecular weight markers; oligomeric state of the purified regulator
[10] = target: MarR-family transcription factor BhbR2 (Pigmentiphaga kullae strain H8); test: as above

Compound: O=C(O)c1ccc(O)c(Br)c1 [3-Br-4-HB, 3-bromo-4-hydroxybenzoate]
- Kd [1]: 2100 nM
- Kd [2]: 2200 nM

Compound: ACCAGCAAGGAACGTGCCCCGTGATCCGCGGTTGCTGATAGCAAACCGTTATCGAGATAAGGAAAAACTGGCTTTTCGCTGTGCGCGTGGATCGTGATACTGCCGCCGGGCCTGGATGAACGGGCCCGGCAACGGAACTACGAC (double strand) [Fphbh1 (Fpbhb1)]
- Kd [3]: 0.7 nM and 1.2 nM

Compound: FpcaA2
- Kd ([4]; 5 uM 3-Br-4-HB): 259 nM
- Kd ([4]; no inducer): 397 nM

Compound: Fphbh1 (Fpbhb1)
- Kd ([5]; 5 uM 3-Br-4-HB): 1.2 nM
- Kd ([5]; no inducer): 0.7 nM

Compound: GAACTCGAGGTGCTGTCGATTTGTGCCATGTTGATCTCCTTCATGGACGCCGGCGGCTTCCACGCCTGCGTCCGGGGACGAGAAACTGCGGAAGCGTCGGGATACCAGCAAGGAACGTGCCCCGTGATCCGCGGTTGCTGATAGCAAACCGTTATCGAGATAAGGAAAAACTGGCTTTTCGCTGTGCGCGTGGATCGTGATACTGCCGCCGGGCCTGGATGAACGGGCCCGGCAACGGAACTACGACCCACGACTAGTTTC (double strand) [PbR1 (Pphbh1 promoter probe, EMSA)]
- binding [6]: binds

Compound: GAACTCGAGTGATGCCGTAGCGGCCTTCGCACAACCGGATCACCAGCGCCCCGCTGACCGACAGCAGCCTGGCTATCCGGTAGTTCAGGAGTTCCTCGCAATTTGCGGGCTGCTCGAAGGACATGGCTGCTCCTGTGCCGACGGCGGTTGATTAGAACAATCAAGGACATGAAAGCTAGAGTCATTCTCCATAAAAAGCCCAGCAGCCGCAACGCCATACGCCGGCGCGGCCCTGGTCGTTTTCCCTCTACCCAAGGAGCATTGCCCACTAGTTTC (double strand) [PbR2 (PpcaA2 promoter probe, EMSA)]
- binding [7]: binds

Compound: GGGCAATGCTCCTTGGGTAGAGGGAAAACGACCAGGGCCGCGCCGGCGTATGGCGTTGCGGCTGCTGGGCTTTTTATGGAGAATGACTCTAGCTTTCATGTCCTTGATTGTTCTAATCAACCGCCGTCGGCACAGGAGCAGCCATGTCCTTCG (double strand) [FpcaA2]
- Kd [8]: 397 nM and 259 nM

Compound: LysR-type transcriptional regulator BhbR1 (natural protein)
- stoichiometry N [9]: 4

Compound: MarR-family transcription factor BhbR2 (natural protein)
- stoichiometry N [10]: 2

Compound: TAATCCGACATCGGCCGCTCCAATAGTGAGAGGTCTTGCGATCCCCCCCTTTCCCCCGTAGGGCGTATGCGGTATTAGCTACGCTTTCGCGTAGTTATCCCCCGCTACTGGGCACGTTCCGATGCATTACTCACCCGTTCGCCACTCGCCGC (double strand) [Pb16S]
- binding [6]: no binding
- binding [7]: no binding
